According to the supplement of paper PMC12764529:
± gives the half width of the 95% confidence interval.

Columns and labels:
[1] = folding stability dG unfold from trypsin proteolysis; higher = more stable
In short: (§1)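 Only designs with AlphaFold2 dimer inter-PAE above 15 were retained; each was a mini-protein under 80 residues with no cysteine, in a PA-tagged cDNA display construct. After digestion with trypsin and chymotrypsin and sequencing, K50 was inferred by Bayesian fitting of counts, and unfolding free energy was derived per protease or combined against a sequence-predicted unfolded-state K50 and a shared folded-state K50.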

[2] = folding stability dG unfold from chymotrypsin proteolysis; higher = more stable
In short: as §1

[3] = folding stability dG unfold (combined trypsin and chymotrypsin); higher = more stable
In short: as §1

Sequence | folding stability dG unfold [1] [kcal/mol] | folding stability dG unfold [2] [kcal/mol] | folding stability dG unfold [3] [kcal/mol]
SLEVAAELGLSVSSLEELETDPEKGTRLLRLTAPTPGATVEVLVEVTTRKDSKGETVPEVRVLAVRTVAPSA [r9_613_JUSTAS] | 1.15 ± 0.03 | 1.33 ± 0.077 | 1.26 ± 0.07
SAGGSAGGGAVVLEEAFDPVRPERLVLVEVVNEKGEPFRFPVPLEDLEAVFEKLPPGFPVLVLPSAGGSAGG [r6_111_TrMRF] | 0.491 ± 0.021 | 0.135 ± 0.1 | 0.36 ± 0.048
SAGGSAGGSAGGIGDDGKVRVALLDKNGKVLGPVYVTKVEEGKIEVEAEPDYTLVLNLESAGGSAGGSAGGS [r10_1257_TrMRF] | -0.0768 ± 0.11 | 0.487 ± 0.12 | 0.329 ± 0.15
SAGKWKVRTIPLPGFSITIWYDPDEGRIRISITMWMWKPKKDPENGKPKQEHRMMTMEAPIPIPPGAPISAG [r5_195_TrROS] | 1.86 ± 0.074 | 2.51 ± 0.29 | 2.3 ± 0.27
SAGMTSVLTLEEVSPEELRAKIDEALATLPEGTIFVLPSEELAEVVKELHPGVPVVVRDEATGRLTEVGSAG [r5_391_JUSTAS] | 1.17 ± 0.041 | 1.67 ± 0.1 | 1.5 ± 0.086
SAGGSAGGSTALVYKNGVTVTFPVFFPDTAPAVVTLSIPSPEEAAAAVAALRAAGHAVTVEPLASAGGSAGG [r6_872_JUSTAS] | 0.96 ± 0.012 | 1.48 ± 0.048 | 1.29 ± 0.031
SAGGMKIIEIEYDEETGKYKFKIKIYDKKTGKLYEIEVEVDKKTGKLSIEEIAKKIAEKLGLPKDIKISAGG [r13_362_TrROS_Hall] | 2.8 ± 0.17 | 4.03 ± 0.062 | 3.69 ± 0.3
SAGGSAEWKEKALKMGAKEVKEDPANGYLYVTFPGPGRTIVIWKKEEDGTVTKVKTVSPSVKVEYKSAGGSA [r15_247_JUSTAS] | -0.292 ± 0.41 | 0.817 ± 0.27 | 0.491 ± 0.18
SAKKKVIEVELPPDAKVVTIKLEGKGVEITFVEVDGKLVITVRYKDDPSKTVTIVVKTKEEADALLKALSAG [r14_716_TrROS_Hall] | 1.23 ± 0.082 | 1.85 ± 0.068 | 1.66 ± 0.27
SAMKIVEIVEYDKEKKKIRIKIEVNGKLLEIEIEAESEEEVEEALKKLKEELEFELPDGKKVRITEIEISAG [r14_422_TrROS_Hall] | 0.749 ± 0.15 | 2.08 ± 0.14 | 1.63 ± 0.28
SAGMVIPYKELKKNLSEEELIELAKEAAEKLGYKPKKIEIKETPEPDKYIVIDVIDENGNKHPIVFPSKSAG [r5_745_TrMRF] | 0.69 ± 0.036 | 0.374 ± 0.17 | 0.542 ± 0.088
SAGGSEGMTVTELVKPPDSDEVLYVATDSAGNTFTLPGSLVKEALENGKTVEAPRPDGTAATLVLRSAGGSA [r2_301_JUSTAS] | 2.25 ± 0.4 | 3.5 ± 0.2 | 3.1 ± 0.34
SAGGSAGGSAGVVVKKPGTDVVYEITEEPGSYKVTITDPKTGTTKEFTVSPEVSIESLLLSAGGSAGGSAGG [r11_772_JUSTAS] | 1.22 ± 0.092 | 0.757 ± 0.13 | 1.15 ± 0.14
SMKPGDTVIVKIEIEKKVDGKTVKKTIEKEIKIKPGETVEIELKGLPKGAKVRVEIFNADGKLIEEKELPSA [r9_478_TrROS_Hall] | 2.23 ± 0.075 | 1.46 ± 0.042 | 1.8 ± 0.08
SAGGSAGGMLVFVVKKIKPGMSDEQKKALEKLVKPGDVIELSPEEIERLAKLPWIQEIKVYPLPSAGGSAGG [r6_381_TrROS_Hall] | 0.641 ± 0.12 | 0.361 ± 0.34 | 0.548 ± 0.2
SAGVTLKLPFVLPGGLGVDEIEVRSLPGGRVEARLRLKGDPRYYVVARFYVLPGGRLVITDVRVRREDESAG [r14_705_TrMRF] | 3.75 ± 0.095 | 3.22 ± 0.031 | 3.54 ± 0.082
SAGGSAGGSAGGSDNDGAKPPKIKVEIHPVNMPPGDIVVHNDHYVIAFPNGWFFVIRPKSAGGSAGGSAGGS [r4_394_TrROS] | 0.911 ± 0.064 | 1.61 ± 0.16 | 1.32 ± 0.14
SAGGSAGGKPDLLLEARTDLFGEEREAEVFYDPSPPVLTITLPDGTVITLPEEEVEIEKETPLISAGGSAGG [r6_185_JUSTAS] | -0.297 ± 0.12 | -0.273 ± 0.065 | -0.243 ± 0.28
SAGGSAGGGSMGSVSVSETTTTSTEGSTTTTTTVHTTTVGGTTTTTTTTTTTSPTPGASSPATASAGGSAGG [r6_684_JUSTAS] | 2.01 ± 0.065 | 1.71 ± 0.043 | 1.85 ± 0.047
SAGKKVTILIVVPETEEEAKKLAEELAKELAEKTGLEKVEVKVVPKGMTLEQLKELAKENNVDLVILVSAGG [r19_89_TrROS_Hall] | 3.24 ± 0.21 | 3.09 ± 0.15 | 3.17 ± 0.24
SAGGMKVKVEVEITVNGKLVKKLTVEMSVEELKKLIEELLPPGAKVEVKIVEVKVEEVEVYELPEEEKSAGG [r13_491_TrROS_Hall] | 1.81 ± 0.13 | 2.21 ± 0.18 | 2.18 ± 0.32

Sequence | folding stability dG unfold [1] [kcal/mol] | folding stability dG unfold [2] [kcal/mol] | folding stability dG unfold [3] [kcal/mol]
SAGMVVENPGTETRVVFDPETGELYVEVGDKVYRIPLPPGVEVEFEVDPEAGTIRVYFPNTGEVLELPLSAG [r5_858_TrMRF] | 4.19 ± 0.13 | 3.38 ± 0.042 | 3.63 ± 0.051
SAGGSAGGSKAEVFETPDGLVVVVVPTEDSVRAFVFFPDGYIAEFDFPTGKIVRIFSPDEEIASAGGSAGGS [r12_235_TrMRF] | 2.8 ± 0.09 | 3.55 ± 0.052 | 3.27 ± 0.079
SMVEIKVEKKEDGTVKITIVAPLEKAEEIAKKLAEELGKEVKIVKIEKKKVKVNGEERELVKIEIEIRLPSA [r9_431_TrROS_Hall] | 2.86 ± 0.28 | 2.23 ± 0.31 | 2.24 ± 0.78
SAGGSAMLVIEIEVDGKKVTLVIEVPPEMTEEEIRELAEELAERLRALPGVKEVKVKIERVPPPPESAGGSA [r15_246_TrROS_Hall] | 4.06 ± 0.22 | 3.56 ± 0.18 | 3.85 ± 0.26
SAGMETVVTYDPSNGTVTTTTTVFAPDGTPLGSLSTTTPIGGGTITYTTITIDPETGTVTTTTTAYPGASAG [r5_34_JUSTAS] | 2.77 ± 0.093 | 4.49 ± 0.086 | 4.25 ± 0.11
SAAVITLETENVTATSTLLEDGSVLVDVVEFYEDGYVSVVKAVIGPDGEIKVVERVVFPVPPPVPPPDASAG [r14_42_TrMRF] | 2.49 ± 0.094 | 2.3 ± 0.094 | 2.36 ± 0.18
SAGGSAGGSAKVKAEIEYDPATGKITIKLITEDERGGKTEEAEITIPIPIPAPPAPPADVDKSAGGSAGGSA [r18_361_TrMRF] | -0.0238 ± 0.12 | 1.69 ± 0.15 | 1.27 ± 0.12
SAGGPLVVEAKVEGDTVTIRLPNGEEFTAHPDATLFLPNGERVFFEPVSDDVVIATVVPLPEDAEFPSAGGS [r16_277_TrMRF] | 0.359 ± 0.034 | -0.0303 ± 0.13 | 0.212 ± 0.085
SAGGSAGGSAGPNNMYPYEITIEVRDDGKPVKIKIEMYMSPNGEPMPPEQIKNFAKELAKSAGGSAGGSAGG [r17_373_TrROS] | 0.382 ± 0.24 | 0.444 ± 0.17 | 0.398 ± 0.23
SAGGSASGYYTTTTVEIEPEGDTLTTVTTTTLGVPVTFDPVNNTLTLNLPPDQSLVTTTTVTEVAASAGGSA [r15_1040_JUSTAS] | 1.02 ± 0.04 | 0.857 ± 0.033 | 0.976 ± 0.055
SAGGSAGGSAGGMKKGQKFKPVKKVKLRFKVKVKVKVGGKEYEFEAEVELEVEFYVLEDSAGGSAGGSAGGS [r10_758_TrROS_Hall] | 2.55 ± 0.2 | 4.41 ± 0.17 | 3.68 ± 0.25
SAPEVEVFPGKDNSALVRVVFEFDGYRIEVVRRVPVEALKAGIPLEELPDVEILEVRVVKLPKPRPDELSAG [r14_856_TrMRF] | 2.17 ± 0.056 | 2.85 ± 0.029 | 2.58 ± 0.061
SAGMTLTVVLPVPEEMTEEEAAEILRAYVDAVVAELLAGDAVAVPKEIVVDKETGTAVAKVELFIPPDLSAG [r5_146_TrMRF] | 2.59 ± 0.064 | 2.56 ± 0.027 | 2.58 ± 0.068
SEEVEIEIRIRVEVDSLEEARALAEALEELGFEVEVKVVERDGKLVVEVTIRIRVPAPPPPPLSEEELKASA [r9_863_TrROS_Hall] | 2.49 ± 0.11 | 1.55 ± 0.14 | 2.17 ± 0.19
SAMKYLVEVTADLGGPSVRYELDAESIEEAIEKVKEKLKPLFPDAPLKNITLTFHDPSSDETTTVNIVESAG [r14_54_JUSTAS] | 3.36 ± 0.067 | 3.54 ± 0.031 | 3.49 ± 0.062
SAEPTLAEATNDPATGTATANFPLENLPPDYRVLAVNLETGEVTEFPPDGEVTITAPEGPVLVKLFWKGSAG [r14_134_TrMRF] | 0.608 ± 0.13 | -0.512 ± 0.55 | 0.213 ± 0.15
SMKFTITLSNPVDGTTETIPLDVPLEELVKIIKEAHEKGGTVTITGLPEELAKEIAEKSGLDVSINPAPGSA [r9_1207_JUSTAS] | 3.13 ± 0.14 | 2.57 ± 0.053 | 2.85 ± 0.14
SAGPADPGFLGTRTVPHPDGVVTVDVYRFAGTRVLITITLPDSTVPVEDPVESEEEALAFADAVVAEVGLSA [r9_758_JUSTAS] | 0.637 ± 0.081 | 2.27 ± 0.037 | 1.66 ± 0.1
SAGGIEVDPEHKHVHIHIPNGNIPELLDLIEDAPGDHVSIHFYNPGNGKPRRFTMPRKEARKFLEQFSAGGS [r16_797_TrROS] | 1.13 ± 0.033 | 0.834 ± 0.086 | 1.04 ± 0.044
SAKIEIIKKDGEYYLRITLENGKKKTIKLKGIKKIEIKNGKIYIYNKKTGKKIILKNAKIKKIEIEKVPSAG [r14_83_TrROS_Hall] | 3.1 ± 0.18 | 4.6 ± 0.18 | 3.87 ± 0.41
SAGGSAGGKKKIKPPEVTIKIKNKDGSVFEAKITKVEYDEETKKLYLEIEIEVNGKKYKLTIELSAGGSAGG [r6_962_TrROS_Hall] | 2.87 ± 0.16 | 4.49 ± 0.26 | 4.16 ± 0.76
